# Laboratory results taken from patent US20170226158A1 (AstraZeneca / MedImmune, published 2017).
# Changes are numbered by the printed parent chain.
# B1: CD73 mut11 (designed binder)
# chain: DLGKKLLEAARAGQNDKVRILMANGAKVNAADTWGRTPLHLAAYHGHLEIVKVLLKHGANVNAEDIHGFTPLHLAALWGHRKIVKVLLKNGAKVNAVDWYGHTPLHLAAIDGHRKIVKVLLKHGAKVNAQDKFGKTAFDISIENGNEKLAKILQKL
# notes: Net charge 11; Tested on phage
# B2: KRAS mut8 (designed binder)
# chain: DLGKKLLEAARAGQNDKVRILMANGAKVNARDHTGFTPLHLAAQHGHRKIVKVLLKNGAKVNAVDWFGRTPLHLAAKMGHLEIVKVLLKHGANVKADDHNGRTPLHLAAWEGHLEIVKVLLKYGAKVNAQDKFGKTAFDISIENGNEKLAKILQKL
# notes: Net charge 12; Tested on phage
# B3: KRAS mut6 (designed binder)
# chain: B2 chain with K60D, N93K, K95N
# notes: Net charge 10; Tested on phage
# B4: KRAS mut9 (designed binder)
# chain: B2 chain with K60N, N62K, L81R, E82K, K85E, L114R, E115K, K126D
# notes: Net charge 14; Tested on phage
# B5: KRAS mut11 (designed binder)
# chain: B2 chain with L81R, E82K, N93D, K95N, L114R, E115K
# notes: Net charge 16; Tested on phage
# B6: KRAS mut7 (designed binder)
# chain: B2 chain with K27N, R48L, K49E, L81R, E82K
# notes: as for B1
# B7: KRAS mut10 (designed binder)
# chain: B2 chain with L114R, E115K, I142V
# notes: Net charge 15; Tested on phage
# B8: LMYC mut8 (designed binder)
# chain: DLGKKLLEAARAGQNDKVRILMANGAKVNAMDQYGFTPLHLAAWYGHRKIVKVLLKHGANVKAKDVHGFTPLHLAAWTGHLEIVKVLLKNGANVKARDNEGSTPLHLAALAGHLEIVKVLLKNGAKVNAQDKFGKTAFDISIENGNEKLAKILQKL
# notes: as for B1
# B9: LMYC mut7 (designed binder)
# chain: B8 chain with K27N, N29K, K85E, N93D, K95N, L114R, E115K
# notes: Tested on phage
# B10: LMYC mut9 (designed binder)
# chain: B8 chain with N93K, K95N
# notes: as for B1
# B11: LMYC mut11 (designed binder)
# chain: B8 chain with K27D, L81R, E82K
# notes: as for B2
# B12: DARPin 1 (template L-Myc DARPin, net charge -13) (designed binder)
# chain: DLGKKLLEAARAGQDDEVRILMANGADVNAMDQYGFTPLHLAAWYGHLEIVEVLLKHGADVNAKDVHGFTPLHLAAWTGHLEIVEVLLKNGADVNARDNEGSTPLHLAALAGHLEIVEVLLKNGADVNAQDKFGKTAFDISIDNGNEDLAEILQKL
# notes: also called tDARPin S-13; S-13 tDARPin
# Target: T1, CD73 (UniProt P21589 27-549, limits assumed)
# T1 construct: Target antigen in phage ELISA; construct not described
# T1 sequence (looked up): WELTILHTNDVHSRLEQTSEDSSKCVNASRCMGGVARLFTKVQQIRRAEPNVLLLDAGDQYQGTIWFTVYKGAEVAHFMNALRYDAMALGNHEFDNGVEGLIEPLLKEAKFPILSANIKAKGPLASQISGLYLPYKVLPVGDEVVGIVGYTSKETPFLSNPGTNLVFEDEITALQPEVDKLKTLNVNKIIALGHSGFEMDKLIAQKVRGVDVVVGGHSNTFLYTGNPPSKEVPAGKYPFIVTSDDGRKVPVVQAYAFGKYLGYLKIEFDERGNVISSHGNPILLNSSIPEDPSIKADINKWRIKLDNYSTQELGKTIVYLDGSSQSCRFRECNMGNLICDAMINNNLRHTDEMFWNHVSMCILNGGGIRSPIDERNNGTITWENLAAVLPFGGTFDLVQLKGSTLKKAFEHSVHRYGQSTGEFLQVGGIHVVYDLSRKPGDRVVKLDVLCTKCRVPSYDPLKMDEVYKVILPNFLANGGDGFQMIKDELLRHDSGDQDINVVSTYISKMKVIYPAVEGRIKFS
# Assay: phage ELISA on target antigen, signal as % of parental WT
row,Binder,% antigen binding activity retained (relative to parental) [%]
1,B1,> 50

# Target: T2, KRAS (UniProt P01116-2 1-188, limits assumed)
# T2 construct: Target antigen in phage ELISA; construct not described
# Assay: as above
row,Binder,% antigen binding activity retained (relative to parental) [%]
1,B2,> 50
2,B3,> 50
3,B4,> 50
4,B5,> 50
5,B6,> 50
6,B7,> 50

# Target: T3, SUMO-L-Myc fusion protein (recombinant bHLHZip domain of L-Myc fused with a small ubiquitin-like modifier … (UniProt P12524 281-364))
# T3 construct: not shown: small ubiquitin-like modifier (SUMO) protein
# T3 sequence (looked up): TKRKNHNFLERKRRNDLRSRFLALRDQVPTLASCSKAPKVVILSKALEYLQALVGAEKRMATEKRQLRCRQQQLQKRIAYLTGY
# Assay: as above
row,Binder,% antigen binding activity retained (relative to parental) [%]
1,B8,> 50
2,B9,> 50
3,B10,> 50
4,B11,> 50

# Target: T3, SUMO-L-Myc fusion protein (recombinant …)
# Assay: second phage ELISA on coated antigens
row,Binder,binding result
1,B12,binds
